Laboratory results reported in PMC7305319, “Talin dissociates from RIAM and associates to vinculin sequentially in response to the actomyosin force” (Nature Communications, 2020).
Like-named read-outs stand apart in the source and are kept apart here. Values belong to the molecule of their own block, whether it stands above or below them.

Tests used:
RIAM (Homo sapiens) [1] = biological target: RIAM (Homo sapiens) (UniProt Q7Z5R6); settings: cited from earlier work
RIAM (Homo sapiens) [2] = biological target: RIAM (Homo sapiens) (UniProt Q7Z5R6); settings: cited from earlier work; remark: listed apart in the source
Talin R1-R2-R3 = Talin R1-R2-R3 (UniProt Q9Y490); settings: cited from earlier work
[3] = biological target: T1, talin R11 (F2–F3–R11–R13) (human)
T1 chain: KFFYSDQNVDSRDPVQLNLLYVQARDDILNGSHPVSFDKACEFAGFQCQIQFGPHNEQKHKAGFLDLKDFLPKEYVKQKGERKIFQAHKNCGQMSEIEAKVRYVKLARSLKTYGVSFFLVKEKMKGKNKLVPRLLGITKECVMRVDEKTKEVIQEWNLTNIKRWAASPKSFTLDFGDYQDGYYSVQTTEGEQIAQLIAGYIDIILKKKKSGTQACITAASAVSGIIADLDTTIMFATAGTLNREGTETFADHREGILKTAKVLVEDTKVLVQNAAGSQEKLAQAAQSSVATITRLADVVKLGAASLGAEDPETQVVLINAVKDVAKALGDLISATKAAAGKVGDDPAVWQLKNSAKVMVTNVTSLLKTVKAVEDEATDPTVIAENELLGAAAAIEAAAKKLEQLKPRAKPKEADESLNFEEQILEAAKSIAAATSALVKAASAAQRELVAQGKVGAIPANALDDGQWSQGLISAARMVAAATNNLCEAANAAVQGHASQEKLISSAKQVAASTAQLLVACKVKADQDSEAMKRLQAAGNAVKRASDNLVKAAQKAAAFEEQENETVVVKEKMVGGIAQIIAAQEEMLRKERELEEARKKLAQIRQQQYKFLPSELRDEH

[4] = biological target: T2, talin R1–R2–R3 (F2–F3–R1–R2–R3–R13) (human)
T2 chain: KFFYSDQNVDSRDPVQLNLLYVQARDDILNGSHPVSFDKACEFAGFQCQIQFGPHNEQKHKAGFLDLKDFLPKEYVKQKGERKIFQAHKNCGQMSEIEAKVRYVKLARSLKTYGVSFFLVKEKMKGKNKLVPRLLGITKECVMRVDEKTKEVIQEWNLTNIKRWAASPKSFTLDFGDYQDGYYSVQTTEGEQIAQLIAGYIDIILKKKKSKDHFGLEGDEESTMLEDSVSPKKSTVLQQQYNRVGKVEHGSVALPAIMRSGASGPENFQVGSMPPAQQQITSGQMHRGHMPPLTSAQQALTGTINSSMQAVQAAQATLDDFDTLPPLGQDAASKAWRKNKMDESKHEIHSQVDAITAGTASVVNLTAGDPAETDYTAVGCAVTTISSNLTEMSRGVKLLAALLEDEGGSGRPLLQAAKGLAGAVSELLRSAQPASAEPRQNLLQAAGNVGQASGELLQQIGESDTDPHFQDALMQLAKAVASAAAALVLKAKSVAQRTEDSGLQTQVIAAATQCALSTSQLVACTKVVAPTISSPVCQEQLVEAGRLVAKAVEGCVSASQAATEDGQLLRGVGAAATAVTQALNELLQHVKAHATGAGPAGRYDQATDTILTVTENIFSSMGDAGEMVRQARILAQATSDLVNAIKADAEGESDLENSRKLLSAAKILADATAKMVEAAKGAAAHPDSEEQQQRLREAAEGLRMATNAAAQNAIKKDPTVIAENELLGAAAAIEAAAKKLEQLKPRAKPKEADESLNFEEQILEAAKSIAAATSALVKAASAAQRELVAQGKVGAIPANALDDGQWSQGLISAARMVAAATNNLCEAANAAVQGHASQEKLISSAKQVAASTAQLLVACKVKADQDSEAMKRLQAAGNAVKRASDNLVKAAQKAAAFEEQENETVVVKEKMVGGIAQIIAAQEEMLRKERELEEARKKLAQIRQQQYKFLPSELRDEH

[5] = biological target: T3, talin R7–R8 (F2–F3–R7–R8–R13) (human)
T3 chain: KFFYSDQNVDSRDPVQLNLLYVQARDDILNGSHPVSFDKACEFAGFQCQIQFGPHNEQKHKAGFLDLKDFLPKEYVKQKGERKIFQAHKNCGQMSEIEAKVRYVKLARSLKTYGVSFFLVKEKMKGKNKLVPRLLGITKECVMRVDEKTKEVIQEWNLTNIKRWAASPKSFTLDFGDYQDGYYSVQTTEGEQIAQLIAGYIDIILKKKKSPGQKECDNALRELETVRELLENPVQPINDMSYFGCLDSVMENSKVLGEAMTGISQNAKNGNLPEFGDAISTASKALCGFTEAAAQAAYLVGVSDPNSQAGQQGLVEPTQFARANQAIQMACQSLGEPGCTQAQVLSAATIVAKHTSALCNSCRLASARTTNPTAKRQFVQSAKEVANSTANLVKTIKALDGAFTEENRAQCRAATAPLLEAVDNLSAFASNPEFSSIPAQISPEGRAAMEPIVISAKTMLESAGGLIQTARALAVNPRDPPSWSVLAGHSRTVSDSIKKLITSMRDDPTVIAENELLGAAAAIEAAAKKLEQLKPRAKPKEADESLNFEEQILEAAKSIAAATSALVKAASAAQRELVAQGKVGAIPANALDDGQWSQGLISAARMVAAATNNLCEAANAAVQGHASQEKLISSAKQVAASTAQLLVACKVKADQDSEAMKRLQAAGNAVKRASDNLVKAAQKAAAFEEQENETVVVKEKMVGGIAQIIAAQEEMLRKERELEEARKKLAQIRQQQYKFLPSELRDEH

[6] = biological target: T2, talin R1–R2–R3 (F2–F3–R1–R2–R3–R13); test: fluorescence microscopy of protein-coated micropatterns; talin construct (1 µM during coating) on disk micropatterns, 100 nM mCherry-RIAM 1-306 in solution, with actomyosin (2.4 µM actin, 50 nM myosin II) applying force to talin
[7] = biological target: T4, talin F2–F3–R1–R2–R3 (talin 196–911) (human, UniProt Q9Y490 196-911); test: fluorescence microscopy of protein-coated micropatterns; talin construct (1 µM during coating) on 5 µm disk micropatterns, 0–1 µM mCherry-RIAM 1-306 in solution, no actomyosin; Kd estimated as the RIAM concentration at half saturation; settings: both partners purified
T4 construct: human talin-1, F2–F3–R1–R2–R3, residues 196–911; The methods tell of GST cleavage only for mCherry-RIAM 1-306 and EGFP-Vh, so GST was probably kept on this construct; also called the same construct fused to R1–R2–R3; source: E. coli BL21 DE3, purified (glutathione-Sepharose, Ni-NTA)

[8] = biological target: T2, talin R1–R2–R3 (F2–F3–R1–R2–R3–R13); test: as above

RIAM (Homo sapiens), sequence (Q7Z5R6 whole entry): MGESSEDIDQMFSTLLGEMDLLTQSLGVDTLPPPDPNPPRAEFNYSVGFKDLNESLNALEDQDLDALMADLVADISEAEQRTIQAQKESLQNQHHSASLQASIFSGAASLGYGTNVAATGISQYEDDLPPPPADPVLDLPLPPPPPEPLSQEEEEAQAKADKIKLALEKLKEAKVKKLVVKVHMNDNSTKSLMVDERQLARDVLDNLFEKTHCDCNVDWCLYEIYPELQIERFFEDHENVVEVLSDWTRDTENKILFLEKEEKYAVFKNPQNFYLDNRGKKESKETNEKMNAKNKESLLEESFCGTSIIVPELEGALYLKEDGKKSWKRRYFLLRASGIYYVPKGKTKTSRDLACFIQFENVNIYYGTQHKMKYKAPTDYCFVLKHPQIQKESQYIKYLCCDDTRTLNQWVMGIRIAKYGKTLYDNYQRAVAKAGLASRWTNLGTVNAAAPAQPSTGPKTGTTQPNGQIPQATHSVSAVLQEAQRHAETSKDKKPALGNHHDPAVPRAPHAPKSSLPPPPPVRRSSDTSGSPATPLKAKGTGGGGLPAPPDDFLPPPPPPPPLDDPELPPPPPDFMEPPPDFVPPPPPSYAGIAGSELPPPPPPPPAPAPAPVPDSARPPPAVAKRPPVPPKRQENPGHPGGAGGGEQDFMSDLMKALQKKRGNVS

Molecule: Talin F3 (from UniProt P26039)
Kd (RIAM (Homo sapiens) [1]): 32 µM

Molecule: Vinculin Vh (from UniProt P18206)
Kd (RIAM (Homo sapiens) [2]): 5 µM
Kd (Talin R1-R2-R3): 140 nM

Kd [3]: 36 nM
Kd [4]: 134 nM
Kd [5]: 38 nM
percent of RIAM dissociated from talin at the end of the kinetics with actomyosin [6]: 50%
binding result [7]: binds
Kd [8]: 36 nM
B1: mCherry-RIAM 1-306 (domain or fragment, mouse, UniProt Q8R5A3 1-306, looked up)
chain: MGESNEDIDQMFSTLLGEMDLLTQSLGVDTLPPPDPNPPREEFNYTVGFKDLNESLNALEDQDLDALMADLVADISEAEQRTIQAQKESSQNQDRFALLRASDGQGTASGGYGASAAAIDVSHHEEALPPPPVEPMLDLLPPPPPPPPPELLSKEEEEAKAKADKIKLALEKLKEAKVKKLVVKVHMDDSSTKSLMVDERQLARDVLDNLFEKTHCDCNVDWCLYEIYPELQIERVFEDHENVVEVLSDWTRDTENKVLFLEKEERYAVFKNPQNFYLDNKGKKENKETNEKMNAKNKEYLLEESF
notes: Cloned in a homemade pGEX-6P2-mCherry plasmid; source: E. coli BL21 DE3, purified (glutathione-Sepharose, PreScission cleavage, Ni-NTA); not shown: GST, N-terminal, cleaved
